Test results as given in patent US6638941B1, “Conformationallly constrained peptidomimetics as β-turn templates and modulators of SH3 domains” (OSI Pharmaceuticals, Inc., priority 1997, dated 2003).

Columns and labels:
Lyn SH3 domain = target: T1, Lyn SH3 domain (Homo sapiens, UniProt P07948); test: Inhibition of Lyn SH3-GST fusion protein binding to immobilized p85 proline-rich peptide, surface plasmon resonance (BIAcore); details: Lyn SH3-GST fusion protein (1 μM) incubated with 0.01-100 μM spirolactam or non-biotinylated canonical peptide prior to injection; 25° C.; concentration behind the values not stated
T1 construct: Lyn SH3-GST fusion proteins were generated as previously described; made in house
Protocol: The ability of spirolactams to bind to SH3 domains was assessed by measuring their ability to inhibit the binding of cononical proline-rich peptide to purified Lyn SH3 domain. This inhibition was measured by surface plasmon resonance.
Lyn SH3-GST fusion proteins were generated as previously described (Pleiman, et al., Mol & Cellular Biol. 13(9):5877 (1993)), purified from bacterial lysates by glutathione affinity chromatography and eluted by competition. Aggregates were removed by size exclusion chromatography on Sephadex 75 (Pharmacia Biotech, Uppsala, Sweden).
Surface plasmon resonance measurements were performed on a BIAcore 2000 biosensor (BIAcore AB, Uppsala, Sweden). A synthetic canonical proline-rich peptide derived from phosphatidylinositol 3 kinase p85 (Pleiman, et al., (1994) Science 263:1609 (1994)); GGGKPRPPRPLPVAPGSS (SEQ ID NO:5) was immobilized on a prepared streptavidin coated sensor chip (Sensor Chip SA, BIAcore AB) via an N-terminal biotin moiety at a density of 0.05 pmol/mm^2. […] Dissociation was monitored during subsequent washing of the chip with running buffer for an additional 5.0 minutes. […]
To test their activity, 0.01-100 μM spirolactam or non-biotinylated canonical peptide was incubated with the fusion protein prior to injection. Data were recorded in real-time as sensorgrams and analyzed subsequently using BIA evaluation 2.0 software (BIAcore AB).

[1] = target: Lyn SH3-GST fusion protein; test: SPR competition, compound (0.01-100 uM) incubated with Lyn SH3-GST before injection over immobilized biotinylated p85 peptide

T1 sequence (P07948 63-123 limits assumed): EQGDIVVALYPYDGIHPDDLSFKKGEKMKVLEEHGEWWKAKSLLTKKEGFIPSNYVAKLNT

Row | Percent Binding (Relative binding affinity to SH3 domain) (Lyn SH3 domain) [%] | Percent Binding [1] [%] | Molecule
1 | 81 |  | Ac-GGGKPRPPRPLPVAPGSS-OH [Ac-GGGKPRPPRPLPVAP-GSS-OH, non-biotinylated canonical proline-rich peptide derived from phosphatidylinositol 3 kinase p85, reference compound]
2 |  | 81 | Ac-GGGKPRPPRPLPVAPGSS-OH [Ac-…-OH]
